# Reference: the supplement of paper PMC7877785
# ± gives the uncertainty stated by the source.
# Assay: self-splicing fitness, log relative to wild type (ln ratio); higher = more splicing; Tetrahymena group I intron in knt gene, E. coli kanamycin selection, DiMSum; sequences stand for … in CUCUCU…GGAGGGAAAAGUUAUCAGGCAUGCACCUGGUAGCUAGUCUUUAAACCAAUAGAUUGCAUCGGUUUAAAAGGCAAGACCGUCAAAUUGCGGGAAAGGGGUCAACAGCCGUUCAGUACCAAGUCUCAGGGGAAACUUUGAGAUGGCCUUGCAAAGGGUAUGGUAAUAAGCUGACGGACAUGGUCCUAACCACGCAGCCAAGUCCUAAGUCAACAGAUCUUCUGUUGAUAUGGAUGCAGUUCACAGACUAAAUGUCGGUCGGGGAAGAUGUAUUCUUCUCAUAAGAUAUAGUCGGACCUCUCCUUAAUGGGAGCUAGCGGAUGAAGUGAUGCAACACUGGAGCCGCUGGGAACUAAUUUGUAUGCGAAAGUAUAUUGAUUAGUUUUGGAGUACUCGUGGUCG
# How it was run: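 The eight P1ex-region nucleotides of an intron in the knt kanamycin-resistance gene on pET-22b(+) were all randomised and the library put into E. coli BL21(DE3). Six replicate transformations were grown overnight at 37°C or 30°C on LB agar with or without 25 μg/mL kanamycin, together with 100 μg/mL carbenicillin, 50 μM IPTG and 0.2% rhamnose. Colonies were pooled and amplicon-sequenced on an Illumina HiSeq 2500. Fitness from DiMSum is the error-weighted combination of wild-type-normalised replicate fold changes, kanamycin over none.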
Sequence,self-splicing fitness (ln) (30 °C),self-splicing fitness (ln) (37 °C)
UAACAGCAAUAUUACGUUAC,-3.91 ± 0.2,-3.09 ± 0.24
UAAGAGCAAUAUUACGAAAU,,-1.61 ± 0.32
UAAGAGCAAUAUUACGAAGU,-3.61 ± 0.31,-1.85 ± 0.41
UAAGAGCAAUAUUACGAAUC,-2.87 ± 0.29,-1.79 ± 0.35
UAAGAGCAAUAUUACGACGG,-3.85 ± 0.26,-2.54 ± 0.21
UAAGAGCAAUAUUACGAGAG,-2.23 ± 0.38,-1.95 ± 0.36
UAAGAGCAAUAUUACGAGCA,-3.18 ± 0.29,-0.84 ± 0.14
UAAGAGCAAUAUUACGAGGA,-3.37 ± 0.29,-2.25 ± 0.35
UAAGAGCAAUAUUACGAUGG,-3.51 ± 0.21,-1.68 ± 0.16
UAAGAGCAAUAUUACGAUGU,-4.13 ± 0.26,-1.82 ± 0.2
UAAGAGCAAUAUUACGCACA,,-1.42 ± 0.33
UAAGAGCAAUAUUACGCCGC,-2.81 ± 0.41,
UAAGAGCAAUAUUACGCGUU,,-2.04 ± 0.33
UAAGAGCAAUAUUACGCUUU,-2.81 ± 0.18,-1.85 ± 0.31
UAAGAGCAAUAUUACGUAAG,-3.02 ± 0.2,-2.1 ± 0.21
UAAGAGCAAUAUUACGUAUU,-4.58 ± 0.34,-2.02 ± 0.2
UAAGAGCAAUAUUACGUCAG,-3.04 ± 0.25,-2.33 ± 0.33
UAAGAGCAAUAUUACGUUAA,-3.21 ± 0.22,-2.3 ± 0.2
UAAGAGCAAUAUUACGUUCA,-1.29 ± 0.13,-0.735 ± 0.14
UAAGAGCAAUAUUACGUUUU,-3.31 ± 0.15,-3.27 ± 0.2
UAAUAGCAAUAUUACGACCG,-0.0649 ± 0.15,0.638 ± 0.17
UAAUAGCAAUAUUACGAUAG,-2.06 ± 0.27,-2.99 ± 0.38
UAAUAGCAAUAUUACGAUGG,-3.31 ± 0.16,-1.18 ± 0.13
UAAUAGCAAUAUUACGAUUC,,-2.05 ± 0.23
UAAUAGCAAUAUUACGCACC,-2.04 ± 0.21,-0.918 ± 0.24

Sequence,self-splicing fitness (ln) (30 °C),self-splicing fitness (ln) (37 °C)
UAAUAGCAAUAUUACGCAUU,-2.83 ± 0.21,-2.15 ± 0.28
UAAUAGCAAUAUUACGCGCA,-1.13 ± 0.086,0.129 ± 0.1
UAAUAGCAAUAUUACGCGGU,-3 ± 0.31,-2.29 ± 0.35
UAAUAGCAAUAUUACGCGUU,-4.21 ± 0.17,-2.66 ± 0.15
UAAUAGCAAUAUUACGCUCA,-0.0964 ± 0.088,-0.235 ± 0.096
UAAUAGCAAUAUUACGCUUG,-0.7 ± 0.082,-0.621 ± 0.096
UAAUAGCAAUAUUACGGAUC,,-2.05 ± 0.41
UAAUAGCAAUAUUACGGCGA,-1.6 ± 0.21,-0.266 ± 0.22
UAAUAGCAAUAUUACGGGGG,-3.12 ± 0.19,-3.37 ± 0.39
UAAUAGCAAUAUUACGGUCA,-0.412 ± 0.11,-0.333 ± 0.11
UAAUAGCAAUAUUACGGUGG,-4.08 ± 0.25,-1.12 ± 0.12
UAAUAGCAAUAUUACGGUUC,-2.91 ± 0.29,
UAAUAGCAAUAUUACGUCAC,-3.93 ± 0.26,0.0385 ± 0.19
UAAUAGCAAUAUUACGUCAU,-4 ± 0.28,-2.52 ± 0.22
UAAUAGCAAUAUUACGUUCU,-2.47 ± 0.29,-1.9 ± 0.32
UAAUAGCAAUAUUACGUUUU,-4.25 ± 0.29,-2.73 ± 0.17
UACAAGCAAUAUUACGAAAU,-2.52 ± 0.16,-3.01 ± 0.29
UACAAGCAAUAUUACGAUAG,-2.16 ± 0.093,-0.848 ± 0.089
UACAAGCAAUAUUACGAUCU,-0.941 ± 0.075,-0.61 ± 0.077
UACAAGCAAUAUUACGAUUC,-3.23 ± 0.13,-2.04 ± 0.16
UACAAGCAAUAUUACGAUUG,-3.18 ± 0.17,-1.8 ± 0.17
UACAAGCAAUAUUACGCAAG,-2.81 ± 0.12,-1.6 ± 0.11
UACAAGCAAUAUUACGCAGA,-2.31 ± 0.15,-1.29 ± 0.1
UACAAGCAAUAUUACGCCAA,-1.74 ± 0.18,-1.07 ± 0.15
UACAAGCAAUAUUACGCCUC,-3.38 ± 0.48,-2.1 ± 0.4

Sequence,self-splicing fitness (ln) (30 °C),self-splicing fitness (ln) (37 °C)
UACAAGCAAUAUUACGCGAA,-2.37 ± 0.099,-0.769 ± 0.095
UACAAGCAAUAUUACGCGCA,-0.13 ± 0.081,0.163 ± 0.11
UACAAGCAAUAUUACGCGUG,-2.09 ± 0.11,-1.37 ± 0.098
UACAAGCAAUAUUACGGAAC,-3.75 ± 0.27,-2.28 ± 0.25
UACAAGCAAUAUUACGGACC,-2.74 ± 0.14,-0.499 ± 0.18
UACAAGCAAUAUUACGGCAG,-0.426 ± 0.078,-0.134 ± 0.11
UACAAGCAAUAUUACGGCCA,-0.557 ± 0.14,0.111 ± 0.16
UACAAGCAAUAUUACGGCGG,-0.215 ± 0.065,0.218 ± 0.084
UACAAGCAAUAUUACGGGGC,-5.04 ± 0.34,-2.46 ± 0.17
UACAAGCAAUAUUACGGUAC,-4.41 ± 0.31,-3.1 ± 0.33
UACAAGCAAUAUUACGUAAG,-3.96 ± 0.21,-3.05 ± 0.19
UACAAGCAAUAUUACGUAUA,-2.22 ± 0.13,-0.891 ± 0.12
UACAAGCAAUAUUACGUCAA,-3.18 ± 0.2,-1.67 ± 0.13
UACAAGCAAUAUUACGUGAG,-3.54 ± 0.17,-1.91 ± 0.14
UACAAGCAAUAUUACGUUAC,-4.21 ± 0.23,-2.84 ± 0.22
UACCAGCAAUAUUACGAAAG,-1.95 ± 0.15,-1.28 ± 0.15
UACCAGCAAUAUUACGACAU,-1.381 ± 0.012,-0.566 ± 0.032
UACCAGCAAUAUUACGACGC,-2.41 ± 0.12,-1.73 ± 0.15
UACCAGCAAUAUUACGACGG,-0.833 ± 0.06,-0.237 ± 0.094
UACCAGCAAUAUUACGAGAC,-2.38 ± 0.18,-1.54 ± 0.2
UACCAGCAAUAUUACGAGCA,-0.673 ± 0.066,0.225 ± 0.09
UACCAGCAAUAUUACGAUAG,-1.1 ± 0.067,0.0475 ± 0.097
UACCAGCAAUAUUACGAUCU,-1.77 ± 0.13,-1.08 ± 0.16
UACCAGCAAUAUUACGCAAA,-1.54 ± 0.081,0.0436 ± 0.096
UACCAGCAAUAUUACGCCUU,-0.707 ± 0.066,-0.62 ± 0.074

Sequence,self-splicing fitness (ln) (30 °C),self-splicing fitness (ln) (37 °C)
UACCAGCAAUAUUACGGCUG,-3.63 ± 0.14,-2 ± 0.15
UACCAGCAAUAUUACGGGGU,-4.41 ± 0.16,-2.68 ± 0.15
UACCAGCAAUAUUACGUAAA,-0.982 ± 0.071,-0.408 ± 0.097
UACCAGCAAUAUUACGUACA,-0.719 ± 0.071,-0.432 ± 0.1
UACCAGCAAUAUUACGUCAG,-0.702 ± 0.095,-1.16 ± 0.11
UACCAGCAAUAUUACGUUCG,-0.545 ± 0.071,0.0802 ± 0.092
UACGAGCAAUAUUACGAAGA,-2.13 ± 0.37,
UACGAGCAAUAUUACGAAGC,-2.71 ± 0.35,-0.927 ± 0.34
UACGAGCAAUAUUACGAAGU,-4.33 ± 0.39,-2.41 ± 0.24
UACGAGCAAUAUUACGACAA,-2.15 ± 0.47,-1.2 ± 0.31
UACGAGCAAUAUUACGACGA,-1.85 ± 0.18,-0.325 ± 0.13
UACGAGCAAUAUUACGAGUA,-2.84 ± 0.15,-2.52 ± 0.15
UACGAGCAAUAUUACGCAGA,,-2.33 ± 0.31
UACGAGCAAUAUUACGCAUG,-2.37 ± 0.25,-2.25 ± 0.24
UACGAGCAAUAUUACGCCAU,,-1.84 ± 0.31
UACGAGCAAUAUUACGCCUU,-3.54 ± 0.43,
UACGAGCAAUAUUACGCGAU,-4.05 ± 0.3,-2.28 ± 0.22
UACGAGCAAUAUUACGCGUA,,-2.35 ± 0.41
UACGAGCAAUAUUACGCUGG,-3.2 ± 0.27,-1.77 ± 0.16
UACGAGCAAUAUUACGGAUU,-2.38 ± 0.33,
UACGAGCAAUAUUACGGCAC,,-2.53 ± 0.41
UACGAGCAAUAUUACGUAAG,-3.58 ± 0.2,-2.33 ± 0.19
UACGAGCAAUAUUACGUAAU,-4.22 ± 0.31,-1.43 ± 0.19
UACGAGCAAUAUUACGUAGU,-3.39 ± 0.32,-2.95 ± 0.33
